In this test the target is M2 muscarinic acetylcholine receptor, endogenous, canine atrium (canine). Description: cell-based or functional assay.

Substance “Gαi2 C-terminal peptide expressed from a pFLAG CMV6a minigene (FLAG-tagged Gαi2ctp)” gave a vagal-induced ERP shortening in the PLA, 3 days after minigene delivery (Gαi2ctp dogs vs. GαRp control dogs) of 19.5 ms.

As to “Gαo1 C-terminal peptide expressed from a pFLAG CMV6a minigene (Gαo1ctp)”, the vagal-induced ERP shortening in the PLA, Gαo1ctp minigene given together with Gαi2ctp minigene (vs. Gαi2ctp alone) was 2.8 ms.

The values above are taken from patent US20120329718A1.
